From patent US20250197482A1

B1: CAP256V2LS (antibody, V domains shown)
VH: QVQLVESGGGVVQPGTSLRLSCAASQFRFDGYGMHWVRQAPGKGLEWVASISHDGIKKYHAEKVWGRFTISRDNSKNTLYLQMNSLRPEDTALYYCAKDLREDECEEWWSDYYDFGAQLPCAKSRGGLVGIADNWGQGTMVTVSS
VL: QSVLTQPPSVSAAPGQKVTISCSGNTSNIGNNFVSWYQQRPGRAPQLLIYETDKRPSGIPDRFSASKSGTSGTLAITGLQTGDEADYYCATWAASLSSARVFGTGTQVIVLG
B2: J3 nanobody (VHH)
VHH: EVQLVESGGGLVQAGGFLRLSCELRGSIFNQYAMAWFRQAPGKEREFVAGMGAVPHYGEFVKGRFTISRDNAKSTVYLQMSSLKPEDTAIYFCARSKSTYISYNSNGYDYWGRGTQVTVSS

Assays:
[1] = target: BG505 DS-SOSIP.664 Env trimer (HIV-1); assay: ITC, 37 C, PBS pH 7.4, antibody titrated into trimer
[2] = target: CAP256 soluble Env trimer (clade C), stabilized in the prefusion-closed conformation (HIV-1); assay: ELISA, lectin-captured trimer, expression supernatant, single point, OD 450 nm
[3] = target: JRFL soluble Env trimer (clade B), stabilized in the prefusion-closed conformation (HIV-1); assay: as above
[4] = target: K169V variant of CAP256 soluble Env trimer (HIV-1); assay: as above
[5] = target: 426C-WITO soluble Env trimer (clade B), stabilized in the prefusion-closed conformation (HIV-1); assay: ELISA, lectin-captured trimer, expression supernatant, single point, OD 450 nm, column 426c-WITO-degly3
[6] = target: BG505 DS-SOSIP.664 Env trimer (HIV-1); assay: ITC, 37 C, PBS pH 7.4, nanobody titrated into trimer

Row | Binder | -TΔS [1] | Kd [1] | N (stoichiometry) (Antigen Binding Sites per Trimer) [1] | ΔG [1] | ΔH [1] | ELISA binding [2] | ELISA binding [3] | ELISA binding [4] | ELISA binding [5] | -TΔS [6] | Kd [6] | N (stoichiometry) (Antigen Binding Sites per Trimer) [6] | ΔG [6] | ΔH [6]
1 | B1 | 15 kcal/mol | 34 nM | 1 | -10.6 kcal/mol | -25.6 kcal/mol | 2.16 | 0.361 | 2.42 | 0.382 | – | – | – | – | –
2 | B2 | – | – | – | – | – | – | – | – | – | 1.4 kcal/mol | 92 nM | 3.1 | -10 kcal/mol | -11.4 kcal/mol
